Substrate in this series: CC(=O)Nc1ccn([C@H]2C[C@H](O)[C@@H](CO)O2)c(=O)n1
As to the kind of experiment: purified protein. Type of series: biochemical, Escherichia coli. The note with it: 10 mM Tris-HCl pH 8.0, 22 °C, free enzyme.

B1: YqfB (free wild-type YqfB, amidohydrolase YqfB) (Escherichia coli K-12) (protein)
chain: MQPNDITFFQRFQDDILAGRKTITIRDESESHFKTGDVLRVGRFEDDGYFCTIEVTATSTVTLDTLTEKHAEQENMTLTELKKVIADIYPGQTQFYVIEFKCL
notes: free wild-type YqfB
As a reminder, the kcat is the number of substrate molecules converted per active site and unit of time at saturation. What is called kcat/Km is the turnover number divided by the Michaelis constant. For the protein B1, the Km result is reported as “(4.9 ± 0.04) × 10^−4 M”, the kcat was 113 ± 1 s⁻¹ and the kcat/Km amounted to 230000 M⁻¹ s⁻¹.

For the origin of these results see PMC8618960, “Functionalized Protein Nanotubes Based on the Bacteriophage vB_KleM-RaK2 Tail Sheath Protein” (Nanomaterials, 2021).
